Laboratory results as given in US20110097739A1.

Target: HCEC protein fraction
Assay: ELISA on the coated protein fraction, lysate treated or not with neuraminidase

reduction of binding after neuraminidase treatment of the lysate: 50%
Substance: FC5 llama single-domain antibody (sdAb), expressed in fusion with His5 and c-myc tags (VHH)
